± gives the uncertainty stated by the source.
B1: POU domain, class 5, transcription factor 1, residues 134 to 212; numbered along this chain, Q01860 (parent)
chain: EESQDIKALQKELEQFAKLLKQKRITLGYTQADVGLTLGVLFGKVFSQTTICRFEALQLSFKNMCKLRPLLQKWVEEAD

Variants of: B1
Assay: abundance fitness (aPCA) (normalised: wild type 0, dead -1); higher = more abundant; growth selection in yeast, the domain comes from the species named
Conditions: Homo sapiens

In order of falling abundance fitness:
1. T37E  0.681 ± 0.076
2. C52A  0.424 ± 0.15
3. T37Q  0.394 ± 0.097
4. D79P  0.393 ± 0.19
5. T37A  0.345 ± 0.074
6. T49K  0.235 ± 0.12
7. A17T  0.228 ± 0.38
8. T49Q  0.206 ± 0.096
9. I6T  0.195 ± 0.12
10. T49E  0.186 ± 0.11
11. A56D  0.18 ± 0.13
12. T37S  0.153 ± 0.087
13. L70Q  0.143 ± 0.29
14. L59N  0.124 ± 0.34
15. T49H  0.109 ± 0.21
16. I6M  0.1 ± 0.12
17. D5N  0.092 ± 0.41
18. F54T  0.078 ± 0.29
19. A56E  0.067 ± 0.09
20. K62S  0.041 ± 0.13
21. L59C  0.009 ± 0.28
22. I6P  -0.015 ± 0.14
23. D5V  -0.018 ± 0.41
24. I6S  -0.054 ± 0.14
25. E12R  -0.07 ± 0.071
26. T49S  -0.072 ± 0.11
27. E12I  -0.112 ± 0.29
28. I6L  -0.143 ± 0.1
29. A17V  -0.145 ± 0.42
30. K18G  -0.147 ± 0.12
31. E76Q  -0.173 ± 0.26
32. E12Q  -0.185 ± 0.17
33. D79R  -0.187 ± 0.18
34. K21S  -0.189 ± 0.14
35. K62H  -0.19 ± 0.36
36. K18W  -0.19 ± 0.18
37. D5S  -0.191 ± 0.41
38. K21R  -0.191 ± 0.12
39. K21Q  -0.2 ± 0.27
40. A56T  -0.243 ± 0.24
41. L41D  -0.244 ± 0.46
42. V34L  -0.258 ± 0.21
43. K18F  -0.268 ± 0.44
44. G43A  -0.282 ± 0.3
45. D33G  -0.283 ± 0.12
46. T37L  -0.283 ± 0.12
47. L70T  -0.325 ± 0.23
48. D5E  -0.343 ± 0.42
49. A56P  -0.345 ± 0.37
50. E12A  -0.345 ± 0.14
51. E12G  -0.35 ± 0.084
52. E12D  -0.357 ± 0.47
53. A17P  -0.357 ± 0.45
54. E12Y  -0.4 ± 0.31
55. L70V  -0.406 ± 0.16
56. K18E  -0.415 ± 0.2
57. T49F  -0.432 ± 0.46
58. E76V  -0.434 ± 0.15
59. L70W  -0.442 ± 0.22
60. G35P  -0.452 ± 0.29
61. I6E  -0.452 ± 0.17
62. K18V  -0.466 ± 0.16
63. G43C  -0.485 ± 0.41
64. D79C  -0.509 ± 0.35
65. L59T  -0.533 ± 0.46
66. L59R  -0.561 ± 0.2
67. D33L  -0.563 ± 0.23
68. D33S  -0.572 ± 0.19
69. L70G  -0.574 ± 0.2
70. G43V  -0.585 ± 0.23
71. D33A  -0.594 ± 0.19
72. G43R  -0.613 ± 0.17
73. V34R  -0.637 ± 0.2
74. L70R  -0.653 ± 0.21
75. F54K  -0.662 ± 0.42
76. L59V  -0.7 ± 0.25
77. F54P  -0.719 ± 0.4
78. D79A  -0.741 ± 0.25
79. G35L  -0.769 ± 0.46
80. V34T  -0.797 ± 0.47
81. L59A  -0.81 ± 0.35
82. A56W  -0.812 ± 0.23
83. L41G  -0.934 ± 0.31
84. F54A  -1.13 ± 0.5

— the Human Domainome abundance scans (Beltran et al. 2025)
